In paper PMC314469, “Protein Interaction Networks by Proteome Peptide Scanning” (PLoS Biology, 2004):

T1: Boi1 SH3 (BOI1_YEAST), P38041
T1 chain: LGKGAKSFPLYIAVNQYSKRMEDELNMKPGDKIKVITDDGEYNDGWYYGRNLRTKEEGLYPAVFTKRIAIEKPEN

T2: Boi2 SH3 (BOI2_YEAST), P39969
T2 chain: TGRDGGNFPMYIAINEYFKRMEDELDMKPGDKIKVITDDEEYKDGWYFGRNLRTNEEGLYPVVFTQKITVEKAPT

T3: Rvs167 SH3 (RV167_YEAST), P39743
T3 chain: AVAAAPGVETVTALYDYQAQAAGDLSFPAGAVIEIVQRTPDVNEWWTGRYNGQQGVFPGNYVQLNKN

T4: Yfr024 SH3 (LSB3_YEAST), P43603
T4 chain: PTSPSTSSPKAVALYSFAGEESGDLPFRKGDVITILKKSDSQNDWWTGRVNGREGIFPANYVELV

T5: Yhr016c SH3 (YSC84_YEAST), P32793
T5 chain: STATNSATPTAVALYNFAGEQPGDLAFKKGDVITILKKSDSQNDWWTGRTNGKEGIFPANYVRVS


What was measured:
Test in all cases: SPOT array
[1] = biological target: T1, Boi1 SH3 (BOI1_YEAST), P38041
[2] = biological target: T2, Boi2 SH3 (BOI2_YEAST), P39969
[3] = biological target: T3, Rvs167 SH3 (RV167_YEAST), P39743
[4] = biological target: T4, Yfr024 SH3 (LSB3_YEAST), P43603
[5] = biological target: T5, Yhr016c SH3 (YSC84_YEAST), P32793

Binder	normalised SPOT signal, Boehringer light units (BLU); mean over the file's lines of this peptide [1]	normalised SPOT signal, Boehringer light units (BLU); mean over the file's lines of this peptide [2]	normalised SPOT signal, Boehringer light units (BLU); mean over the file's lines of this peptide [3]	normalised SPOT signal, Boehringer light units (BLU); mean over the file's lines of this peptide [4]	normalised SPOT signal, Boehringer light units (BLU); mean over the file's lines of this peptide [5]
APTPPAPSRSEKLH [YBR108W 727-740]	152	16.8	49.2	4690	448
ASMPRVPLKIVLKD [YIL078W 68-81]	101	282	581	6880	690
ARDPILPYRLVKDR [YHL040C 345-358]	322	46.6	437	16800	4220
APAPLDPFKTGGNN [YBL007C 849-862]	123	68.1	47.4	35.4	22.8
ALKPKTPSKAPRKR [YBR060C 65-78]	247	103	300	2060	341
ALVPFAPFKLLKDR [YHL047C 340-353]	16.7	40.5	136	121	123
ASKPSVPPRNYFSK [YIL108W 577-590]	1130	44.5	3860	20100	9380
AMPPTLPHRDWKDY [YGL153W 84-97]	113	39.4	2620	14600	25500
APLPPQPRKHDKTP [YBL105C 587-600]	217	57.8	52.6	1150	372

Other lines, results leading:

normalised SPOT signal, Boehringer light units (BLU); mean over the file's lines of this peptide [1]	normalised SPOT signal, Boehringer light units (BLU); mean over the file's lines of this peptide [2]	normalised SPOT signal, Boehringer light units (BLU); mean over the file's lines of this peptide [3]	normalised SPOT signal, Boehringer light units (BLU); mean over the file's lines of this peptide [4]	normalised SPOT signal, Boehringer light units (BLU); mean over the file's lines of this peptide [5]	Binder
230	27.5	448	1960	917	ALRPTPPERGSFPL [YLL018C-A 11-24]
145	27.9	39.8	6370	1230	ANLPNRPKRGEGIN [YMR047C 1035-1048]
102	31.2	56.6	96.8	30.2	ALEPGIPDRFSPEM [YLR070C 92-105]
642	884	422	1860	256	AMTPFSPRKSHINN [YNL269W 98-111]
132	8.2	59.8	145	179	ALRPTGPDRGDGFD [YNL139C 1465-1478]
119	73.2	78.6	576	112	AQRPRGPQRGKDIK [YNL064C 104-117]
34.6	39.3	63	648	125	AMNPESPTRDQIFL [YMR012W 411-424]
2830	23400	1380	6950	4120	ASYPLTPRRYVPED [YLR244C 90-103]
